T1: murine CD137 expressed on transfected HEK293 cells (murine, UniProt P20334 24-256)
T1 construct: whole, on cells
T1 sequence (looked up): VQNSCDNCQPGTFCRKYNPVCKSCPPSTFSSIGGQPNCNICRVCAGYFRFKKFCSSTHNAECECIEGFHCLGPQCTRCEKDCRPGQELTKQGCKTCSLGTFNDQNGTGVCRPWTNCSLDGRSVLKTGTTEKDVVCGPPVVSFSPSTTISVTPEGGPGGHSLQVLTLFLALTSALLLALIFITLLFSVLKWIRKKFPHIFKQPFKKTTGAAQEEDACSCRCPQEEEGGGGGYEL

T2: human TNFRSF1A expressed on transfected HEK293 cells (human, UniProt P19438 30-455)
T2 construct: whole, on cells
T2 sequence (looked up): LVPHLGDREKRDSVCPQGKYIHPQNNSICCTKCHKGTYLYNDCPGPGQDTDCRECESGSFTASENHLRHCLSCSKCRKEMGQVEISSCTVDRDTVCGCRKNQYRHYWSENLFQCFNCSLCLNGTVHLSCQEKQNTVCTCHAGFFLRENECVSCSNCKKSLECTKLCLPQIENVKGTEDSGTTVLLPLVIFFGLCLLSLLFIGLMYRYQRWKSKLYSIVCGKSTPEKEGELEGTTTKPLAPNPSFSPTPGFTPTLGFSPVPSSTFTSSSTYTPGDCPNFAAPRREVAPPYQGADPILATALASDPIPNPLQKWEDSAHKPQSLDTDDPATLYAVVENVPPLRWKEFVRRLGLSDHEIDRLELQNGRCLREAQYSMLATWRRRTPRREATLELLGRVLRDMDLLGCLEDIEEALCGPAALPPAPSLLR

T3: murine CD27 expressed on the cell surface of transfected HEK293 cells (murine, UniProt P41272 24-250)
T3 construct: whole, on cells; also called mouse CD27 antigen expressed by HEK293 cells
T3 sequence (looked up): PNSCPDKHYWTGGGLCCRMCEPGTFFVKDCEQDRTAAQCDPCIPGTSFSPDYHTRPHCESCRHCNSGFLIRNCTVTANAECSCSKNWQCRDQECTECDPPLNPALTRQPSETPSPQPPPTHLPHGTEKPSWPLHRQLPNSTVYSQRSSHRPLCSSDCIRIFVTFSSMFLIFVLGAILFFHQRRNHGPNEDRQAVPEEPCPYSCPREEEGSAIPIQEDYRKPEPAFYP

T4: human CD27 expressed on the cell surface of transfected HEK293 cells (human, UniProt P26842 20-260)
T4 construct: whole, on cells; also called human CD27 antigen expressed by HEK293 cells
T4 sequence (looked up): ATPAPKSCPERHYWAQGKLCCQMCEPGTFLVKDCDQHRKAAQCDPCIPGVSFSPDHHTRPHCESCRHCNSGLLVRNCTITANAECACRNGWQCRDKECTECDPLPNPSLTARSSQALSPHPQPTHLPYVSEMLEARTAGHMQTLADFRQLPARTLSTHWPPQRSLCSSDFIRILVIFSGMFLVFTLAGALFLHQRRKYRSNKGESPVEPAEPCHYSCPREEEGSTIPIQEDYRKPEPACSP


Assays:
[1] = target: T1, murine CD137 expressed on transfected …; assay: flow cytometry on transfected HEK293 cells
[2] = target: T2, human TNFRSF1A expressed on transfected …; assay: flow cytometry on transfected HEK293 cells
[3] = target: T3, murine CD27 expressed on the cell …; assay: flow cytometry on transfected HEK293 cells
[4] = target: T4, human CD27 expressed on the cell …; assay: flow cytometry on transfected HEK293 cells
[5] = target: T3, murine CD27 expressed on the cell …; assay: flow cytometry on transfected HEK293 cells, 100 nM antibody
Description: (§1) The binding of antibody to human or murine CD27 expressed on cell surface is determined by fluorescence activated cell sorting (FACS). The corresponding antigen was transiently transfected into HEK293 cells using a vector plasmid and expressed. After 48 hours, cells were harvested and washed once with cold FACS buffer (PBS, 1% BSA), and then incubated with 100 nM corresponding antibody for 1 hour on ice. After washing twice with buffer, the cells were bound to Alexa Fluor 647-conjugated murine anti-human Fc antibody for 30 minutes on ice. After washing once, the cells were loaded onto a Beckman® CytoFlex flow cytometer for detection and the percentage of cells with binding signals was calculated.

[6] = target: T4, human CD27 expressed on the cell …; assay: as above
Description: as §1

Binder | binding result [1] | binding result [2] | binding result [3] | binding result [4] | binding result [5] | binding result [6]
anti-CD27 antibody mAb076 (IgG1 form) (antibody, V domains shown, Human antibody from phage display) VH: EVQLVESGGGLVQPGGSLRLSCAASGFTFSDYGIHWVRQAPGKGLEWIGWINPNRGSTNYAQKFQGRVTISRDNSKNTLYLQLNSLRAEDTAVYYCARDYGYTWYFDVWGQGTLVTVSS VL: DIQLTQSPSSLSASVGDRVTITCRASQDISSVLAWYQQKPGKAPKLLIYAASSLQSGVPSRFSGSGSGTDFTLTISSLQPEDFATYYCQQRDAWPLTFGQGTKVEIK | no binding (tested: 100 nM) | no binding (tested: 100 nM) | binds | binds | – | –
anti-CD27 antibody mAb077 (IgG1 form) (antibody, V domains shown, Human antibody from phage display) VH: EVQLVESGGGLVQPGGSLRLSCAASGFTFSGYGIHWVRQAPGKGLEWIGWINPNRGSTKYAQKFQGRVTISRDNSKNTLYLQLNSLRAEDTAVYYCARDPGYTWYFDVWGQGTLVTVSS VL: DIQLTQSPSSLSASVGDRVTITCRASQDISSDLAWYQQKPGKAPKLLIYAASTLQSGVPSRFSGSGSGTDFTLTISSLQPEDFATYYCQQRDAWPPTFGQGTKVEIK | no binding (tested: 100 nM) | no binding (tested: 100 nM) | – | – | binds | binds

From patent US20190225698A1 (JIANGSU HENGRUI MEDICINE, published 2019)
